B1: TPR t1 (parent)
chain: GACCAAUCUGCCCUCAGAGCUCGAGAACAUCUUCGGAUGCAGAGGAGGCAGGCUUCGGUGGCGCGAUAGCGCCAACGUCCUCAACCUCCAAUGCAUCCCACCACAUGAUGAUGCCUGAAGAGCCUUGGUUUUUUG

Variants of: B1
Test: polymerase ribozyme fitness, log enrichment relative to wild type (log ratio); higher = more active; in vitro selection for triplet polymerase activity
Procedure, shortened: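 Genotype fitness is the logarithm of its enrichment divided by wild-type enrichment, using inverse-variance-weighted averages of replicates. That logarithm is base 2. Enrichment was measured by Illumina sequencing of input and output libraries from one triplicate in vitro selection round, with frozen incubation at −7 °C, on PCR-built, transcribed mutant libraries of each subunit of a heterodimeric triplet polymerase ribozyme, retaining genotypes with ≥10 input reads and ≥1 read per output.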

| Variant | polymerase ribozyme fitness (log ratio) |
| --- | --- |
| C56A G58C C114U | -2.47 |
| C56A C104G A118G C124G | -5.79 |
| C53U G60C U87A | -1.09 |
| C53G C104U A111G | 0.815 |
| C53G G63A C94A C115G G128C | -6.79 |
| C53G C70G C104U C114U G120U C123G C124A | -6.46 |
| C56A G63A G93A A100C C124U | -4.2 |
| U55A G57A G61A G77A U87A A100C | -1.72 |
| C56U C62A | -5.47 |
| C56U C62G | -5.27 |
| C53A G61C U116C | -5.85 |
| C53U U112A | 0.78 |
| C53G C56U | -0.756 |
| C56A G71U G122A | -2.05 |
| C53U G71A G93A | -1.43 |
| U54G G63A G69U U78G C102A U106G G120C | -6.62 |
| C56A G69A | -3.3 |
| U54C U106A C124U | 2.23 |
| C56A C80U A111U | -4 |
| C53G C80G | -3.16 |
| C53U G63C | -2.11 |
| U54G C80A C88A | -4.43 |
| C56A C70G C124A G127A | -2.78 |
| U55A C79U C97U C115U G127C | -3.52 |

| Variant | polymerase ribozyme fitness (log ratio) |
| --- | --- |
| C53G C64U G110U | -3.95 |
| C56G U87A C115U | -1.94 |
| C53U U78A A103U A121C U132C | -4.38 |
| C53U U59A A84U U126C | -2.21 |
| C56G C62U U106A G110U | -0.758 |
| U54A C85U C97U | -1.5 |
| C56G C88A C115U A119G | 1.4 |
| C53U C72U C79A C85U C88U | -2.53 |
| C56G G135U | -1.35 |
| C56G G77U C115G | -3.16 |
| U55A G77U C115U U125A | -1.02 |
| C56A C115U | -1.67 |
| C53U A74G C98U | -1.16 |
| U54C U109A G120C | -5.52 |
| U55G G69A C73A | -3.04 |
| C56G C73U | -0.89 |
| C56U A105C C123U | -1.18 |
| C56A C62U C114U | -2.3 |
| C53U G57A G60C G61A C115U | -4.03 |
| C56G G63C C115A | -2.19 |
| C53U C64U | -0.276 |
| C56G G71C | -3.19 |
| C56G G71U | -3.27 |
| U54C C115U G127C | -1.97 |

| Variant | polymerase ribozyme fitness (log ratio) |
| --- | --- |
| C53U G60U A121C | 1.26 |
| C53U C98U | -1.46 |
| U54G C101U U106A U116G | -3.87 |
| C56G G69C A83C C104U | -5.43 |
| U54A C88G C89U C115A | -1.42 |
| U54C G60U G69U U133G | -2.67 |
| U54C A84G C88A C98U | -1.69 |
| C56U C70U U78G U125G | -1.77 |
| C56A C89U C102U G113U | -6.7 |
| C53U C80A | -4.94 |
| C56U A100C | -1.29 |
| C53U G60U C101U A103C | -5.14 |
| U55G G61U C114U | -1.66 |
| C56A U87G G113U | -3.92 |
| C53U U59G | -0.253 |
| U54G G107U | -5.37 |
| C56A C62A C79A | -6.19 |
| U54C U78G G117U | -3.85 |
| C53G G61C | -1.1 |
| U54G U55A G93C C115G | -5.45 |
| C56G C86A | -1.6 |
| U54G C56G C72A G93A | -4.53 |
| U54C C86G U112G G120C | -1.16 |
| C53U G61U U78C | 0.151 |

| Variant | polymerase ribozyme fitness (log ratio) |
| --- | --- |
| C56A G61C C62U C72G C89U | -0.49 |
| C56U A66U G69U C80A A121C U130A | -6.49 |
| U54A U133G | -0.274 |
| U55G G58C C79A | -3.4 |
| C56A C99U | -2.82 |
| U55G G93A G117U | -3.04 |
| C56A U59C U87C U112A | 0.408 |
| C53A G71A C85A G135U | -4.02 |
| C56U A105U G122A | -2.96 |
| C56A C72U G110A G122U | -2.87 |
| C53G G63C | -1.3 |
| C53U C62U A111U A118U G135A | -3.23 |
| C53G G107U C123G | -2.73 |
| C53A G63A U78C | -2.46 |
| C53G C97U A118U | -0.0977 |
| U54A C86U C124U | 1.14 |
| C56G A66C | -1.08 |
| C56G U132C | -0.811 |
| C53A G120U G122C U125A | -0.563 |
| C56A C76A G120U | -1.15 |
| C56A G61A A111G U125C | -2.99 |
| C53G C64U G127U | -1.02 |
| U55C C56A A84C A111G U129A | -2.42 |
| C56A A83G G135U | -2.3 |

| Variant | polymerase ribozyme fitness (log ratio) |
| --- | --- |
| C53G C72U | -1.04 |
| C53G A66C A83G A84U | -3.08 |
| C53A U112A | 0.632 |
| U55C C70U C88G | -0.976 |
| C56G C72G U87G C98U | -1.99 |
| C53A G63A U78C G110U | -3.53 |
| C53A G61U C82G A84G | -0.925 |
| C53U G71A C73A G77C C80U | -6.09 |
| C56A A119U | -1.36 |
| C56U A95G | 0.263 |
| C56U A95C | -1.26 |
| C56A A83U C85U C99U | -3.58 |
| C56A C72U G93U | -1.63 |
| C56A A83U | -1.62 |
| C56G G63A | -2.75 |
| U54A G69U G128C U130A U132A | -2.67 |
| C53U C70A | -1.49 |
| C53U C70G | -4.36 |
| C53U C94A A121C | 0.891 |
| C56A C72G | -0.848 |
| U54C U87A A95U U130A | -2.56 |
| U54A A119G | 0.648 |
| C56U C62U C101U G122A | -2.35 |
| C56G G63C C114G | -5.3 |

| Variant | polymerase ribozyme fitness (log ratio) |
| --- | --- |
| C53A G127U U129A | -0.623 |
| C56G U81A U87A | -1.8 |
| U55G C62G C123U | -0.0735 |
| U54G C114A | -1.69 |
| C53U C99G A119G | -7.41 |
| C53G C89U | -0.681 |
| C56G C70A A83G U96C G120A | -4.37 |
| C56G C101U | -0.0823 |
| U54C C76U | -0.00868 |
| U55G G61U C123A | 1.22 |
| C56G C72U C124U | -0.654 |
| U54C C72U C89U A111C | -0.0742 |
| C53G | -0.355 |
| C53U | -0.1 |
| C53U G69A A84C | -3.13 |
| C53A G71C C85A G117A U125G | -5.65 |
| C56A C101G | -1.76 |
| C53A G71A | -0.89 |
| C53A U112G C124A | 0.889 |
| C56U A90U | -0.55 |
| U55G C89G | -1.51 |
| C56A G128U | -2.53 |
| C53A G93C | -0.396 |
| C53U G77U U132A | -0.78 |

| Variant | polymerase ribozyme fitness (log ratio) |
| --- | --- |
| C56A U106G G110C | -5.41 |
| C53U A90G A95G | 0.749 |
| C53G G117A U132A | -1.03 |
| U55G C62A C88G | -2.24 |
| C56A U132A | 0.197 |
| U55C G58A G122A | -0.971 |
| C56A U112G | -0.994 |
| C53G C70U | -1.16 |
| C53G G107A | -5.6 |
| C56G C72U C88U U106A U133A | -1.24 |
| C56A A90U | -1.48 |
| C56A C64G | -5.92 |
| C53U A121U | 0.893 |
| C53A G69C | -1.38 |
| C56A U87A U106A | -0.176 |
| U55G C56A | -0.837 |
| U55G C56G | -1.53 |
| C53A U55A C70U | -0.287 |
| C56G C88U | -0.184 |
| C53A U59C A105U | -2.61 |
| C56G A111C | -0.855 |
| C56G A111G | 0.245 |
| C53G C56A G60A A111G | -0.505 |

From the RNAGym collection of RNA variant scans (doi:10.1073/pnas.2313332121)
